Assay results taken from patent US20040014707A1 (published 2004).

B1: scFv#1 (scFv)
scFv: QVNLRESGGGLVQPGGSLRLSCAASGFTFSSYAMSWVRQAPGKGLEWVSAISSNGGSTYYADSVKGRFTISRDNSKNTLYLQMSSLRAEDTALYYCARERGAAAASDYWGPGTLVTVSSGGGGSSGGGSGGGGSQSVLTQPPSASGTPGQRVTISCSGSSSNIGSNSVNWYQQLPGTAPKLLIYSNSNRPSGVPDRFSGSKSGTSASLAISGLRSEDEADYYCAAWDDSLSGRVFGGGTKLTVLGAAAEQKLISEEDLNGAAHHHHHH
B2: scFv#24 (scFv)
scFv: QVQLVESGGGLVQPGGSLRLSCSASGFTFSSYAMHWVRQAPGKGLEYVSAISSNGGSTYYADSVKGRFTISRDNSKNTLYLQMSSLRAEDTAVYYCVKDLHVGRLQLGVFDYWGQGTLVTVSSGGGGSGGGGSGGGGSSELTQDPAVSVAVGQTVKITCQGDSLRSYYATWYQQKPGQAPVLVIYGKNSRPSGIPDRFSGSSSGTTASFTITGAQAEDEADYYCNSRDSTNNQLFGGGTKLTVLGAAAEQKLISEEDLNGAAHHHHH
B3: scFv#4 (scFv)
scFv: QVQLVESGGGLVQPGGSLRLSCSASGFTFSSYAMHWVRQAPGKGLEYVSAISSNGGSTYYADSVKGRFTISRDNSKNTLYLQMSSLRAEDTAVYYCVKDLHVGRLQLGVFDYWGQGTLVTVSSGGGGSGGGGSGGGGSSELTQDPAVSVALGQTVRITCQGDSLRSYYASWYQQKPGQAPVLVIYGKNNRPSGIPDRFSGSSSGNTASLTITGAQAEDEADYYCNSRDSSSTHRGVFGGGTKLTVLGAAAEQKLISEEDLNGAAHHHHHH
B4: scFv#12 (scFv)
scFv: QVQLVESGGGVVQPGRSLRLSCAASGFTFNNHAMEWVRQAPGKGLEWVSGINWDGGSTGYADSVKGRFAVSRDNAKNSLYLQINSLRDEDTAVYYCARANWGRIDYWGQGTLVTVSSGGGGSGGGGSGGGGSSELTQDPAVSVALGQTVRITCQGDSLRRYYASWYQQKPGQAPVLVIYGKNNRPSGIPDRFSGSSSGNTASLTITGAQAEDEADYYCHSRDSSGTHLRVFGGGTKLTVLGAAAEQKLISEEDLNGAAHHHHH

Experiments:
[1] = target: Bacillus anthracis protective antigen PA83 (Bacillus anthracis, UniProt P13423 30-764); assay: SPR (BIACORE), PA83 on CM5 chip, 4 concentrations of monomeric scFv
recombinant PA32 protein = recombinant PA32 protein (Bacillus anthracis); assay: SPR, PA32 coupled to CM5 chip, single scFv concentration
EGFP-PA32 fusion protein = EGFP-PA32 fusion protein (Bacillus anthracis); assay: SPR (BIAcore), […], single concentration

Row | Binder | Kd [1] [nM] | binding result (recombinant PA32 protein) | binding result (EGFP-PA32 fusion protein)
1 | B1 | 190 |  | 
2 | B2 | 430 |  | 
3 | B3 | 310 |  | 
4 | B4 |  | no binding | no binding
